From the supplement of paper PMC10065799, “High-throughput profiling of sequence recognition by tyrosine kinases and SH2 domains using bacterial peptide display” (eLife, 2023)

Experiments:
[1] = target: SHP2-C SH2; assay: SH2 binding enrichment of the phosphorylated peptide, bacterial display (enrichment ratio); higher = better substrate or ligand; peptides without Tyr show the background
[2] = target: c-Src SH2; assay: as above
[3] = target: Grb2 SH2 (UniProt P62993); assay: as above
[4] = target: Fes (UniProt P07332); assay: phosphorylation enrichment, bacterial display (enrichment ratio); higher = better substrate or ligand; peptides without Tyr show the background
Sequence of Fes (P07332 whole entry, looked up): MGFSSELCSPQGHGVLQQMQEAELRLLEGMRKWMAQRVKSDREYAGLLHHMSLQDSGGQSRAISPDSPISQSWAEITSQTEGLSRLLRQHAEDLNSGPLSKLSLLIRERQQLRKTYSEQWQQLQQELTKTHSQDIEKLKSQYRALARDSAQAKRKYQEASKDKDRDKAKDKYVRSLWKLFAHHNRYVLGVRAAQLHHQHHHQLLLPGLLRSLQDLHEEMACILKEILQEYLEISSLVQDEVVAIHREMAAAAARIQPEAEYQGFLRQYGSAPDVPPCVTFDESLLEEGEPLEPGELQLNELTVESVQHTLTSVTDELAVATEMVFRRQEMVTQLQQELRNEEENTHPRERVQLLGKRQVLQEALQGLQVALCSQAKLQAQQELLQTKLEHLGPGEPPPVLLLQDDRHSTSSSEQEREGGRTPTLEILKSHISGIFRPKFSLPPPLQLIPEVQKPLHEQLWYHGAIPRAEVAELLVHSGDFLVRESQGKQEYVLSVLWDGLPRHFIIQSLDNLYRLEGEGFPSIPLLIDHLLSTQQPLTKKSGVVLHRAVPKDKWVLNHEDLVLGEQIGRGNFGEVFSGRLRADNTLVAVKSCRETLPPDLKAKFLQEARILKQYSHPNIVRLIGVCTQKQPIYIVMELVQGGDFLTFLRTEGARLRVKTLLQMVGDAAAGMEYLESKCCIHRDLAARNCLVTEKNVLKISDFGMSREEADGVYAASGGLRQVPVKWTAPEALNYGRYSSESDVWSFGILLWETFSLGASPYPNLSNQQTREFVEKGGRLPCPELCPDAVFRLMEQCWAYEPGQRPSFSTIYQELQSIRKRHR

[5] = target: EPHB1 (UniProt P54762); assay: as above
Sequence of EPHB1 (P54762 whole entry, looked up): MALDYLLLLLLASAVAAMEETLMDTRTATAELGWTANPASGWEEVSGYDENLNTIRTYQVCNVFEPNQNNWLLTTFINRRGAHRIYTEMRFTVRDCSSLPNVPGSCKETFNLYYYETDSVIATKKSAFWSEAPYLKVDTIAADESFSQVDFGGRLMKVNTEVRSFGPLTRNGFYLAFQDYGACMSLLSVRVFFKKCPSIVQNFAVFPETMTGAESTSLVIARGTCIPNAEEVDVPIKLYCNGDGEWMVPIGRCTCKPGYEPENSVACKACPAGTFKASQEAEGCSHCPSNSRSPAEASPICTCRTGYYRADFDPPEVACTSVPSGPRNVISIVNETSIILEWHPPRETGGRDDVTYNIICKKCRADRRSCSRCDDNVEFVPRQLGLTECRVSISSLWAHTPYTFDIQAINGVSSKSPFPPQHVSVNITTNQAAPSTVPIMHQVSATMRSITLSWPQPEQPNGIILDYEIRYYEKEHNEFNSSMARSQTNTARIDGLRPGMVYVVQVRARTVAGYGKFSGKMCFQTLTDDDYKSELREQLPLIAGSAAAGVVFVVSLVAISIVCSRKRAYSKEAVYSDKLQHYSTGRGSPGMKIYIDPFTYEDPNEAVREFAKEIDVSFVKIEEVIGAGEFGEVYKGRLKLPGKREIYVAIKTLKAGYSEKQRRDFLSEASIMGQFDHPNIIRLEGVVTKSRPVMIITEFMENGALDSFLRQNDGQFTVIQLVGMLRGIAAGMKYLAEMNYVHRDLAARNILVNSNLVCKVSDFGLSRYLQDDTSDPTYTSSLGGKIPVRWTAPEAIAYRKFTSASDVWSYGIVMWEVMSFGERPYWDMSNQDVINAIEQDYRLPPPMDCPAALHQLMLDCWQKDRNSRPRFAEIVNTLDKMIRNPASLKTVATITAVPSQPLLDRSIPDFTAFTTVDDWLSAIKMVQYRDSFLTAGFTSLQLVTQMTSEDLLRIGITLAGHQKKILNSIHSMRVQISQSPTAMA

[6] = target: EPHB2 (UniProt P29323); assay: as above
Sequence of EPHB2 (P29323 whole entry, looked up): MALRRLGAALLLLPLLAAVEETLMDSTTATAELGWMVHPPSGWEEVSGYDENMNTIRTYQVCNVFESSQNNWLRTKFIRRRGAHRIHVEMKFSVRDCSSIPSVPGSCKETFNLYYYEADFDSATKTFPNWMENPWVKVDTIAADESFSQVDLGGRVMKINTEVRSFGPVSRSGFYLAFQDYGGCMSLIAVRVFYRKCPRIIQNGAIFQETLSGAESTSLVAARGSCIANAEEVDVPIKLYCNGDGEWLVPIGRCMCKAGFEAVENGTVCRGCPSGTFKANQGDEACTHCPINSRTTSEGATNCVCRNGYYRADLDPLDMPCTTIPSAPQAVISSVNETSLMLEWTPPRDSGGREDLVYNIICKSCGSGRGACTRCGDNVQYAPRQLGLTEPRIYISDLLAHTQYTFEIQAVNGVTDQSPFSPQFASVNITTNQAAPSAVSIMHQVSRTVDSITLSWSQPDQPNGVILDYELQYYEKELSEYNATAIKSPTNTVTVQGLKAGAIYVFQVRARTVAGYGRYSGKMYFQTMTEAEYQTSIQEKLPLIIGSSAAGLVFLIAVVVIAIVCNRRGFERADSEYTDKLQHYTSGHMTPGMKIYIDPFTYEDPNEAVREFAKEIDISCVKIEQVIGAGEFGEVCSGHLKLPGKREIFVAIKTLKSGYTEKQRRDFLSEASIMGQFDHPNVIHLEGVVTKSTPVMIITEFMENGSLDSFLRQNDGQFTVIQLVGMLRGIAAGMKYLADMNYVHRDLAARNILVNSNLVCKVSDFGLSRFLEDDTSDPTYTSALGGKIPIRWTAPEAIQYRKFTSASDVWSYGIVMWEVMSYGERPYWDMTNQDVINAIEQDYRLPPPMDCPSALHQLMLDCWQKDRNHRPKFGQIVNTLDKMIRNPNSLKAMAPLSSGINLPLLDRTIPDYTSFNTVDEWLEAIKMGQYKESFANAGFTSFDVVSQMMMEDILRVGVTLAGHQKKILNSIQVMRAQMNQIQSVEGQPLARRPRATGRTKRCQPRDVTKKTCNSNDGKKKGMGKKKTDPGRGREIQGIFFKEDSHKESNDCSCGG

[7] = system: AncSZ; assay: as above
[8] = target: FGFR3 (UniProt P22607); assay: as above
[9] = system: Fer (mouse); assay: as above
[10] = target: Fyn (UniProt P06241); assay: as above
[11] = target: MERTK (UniProt Q12866); assay: as above
Sequence of MERTK (Q12866 whole entry, looked up): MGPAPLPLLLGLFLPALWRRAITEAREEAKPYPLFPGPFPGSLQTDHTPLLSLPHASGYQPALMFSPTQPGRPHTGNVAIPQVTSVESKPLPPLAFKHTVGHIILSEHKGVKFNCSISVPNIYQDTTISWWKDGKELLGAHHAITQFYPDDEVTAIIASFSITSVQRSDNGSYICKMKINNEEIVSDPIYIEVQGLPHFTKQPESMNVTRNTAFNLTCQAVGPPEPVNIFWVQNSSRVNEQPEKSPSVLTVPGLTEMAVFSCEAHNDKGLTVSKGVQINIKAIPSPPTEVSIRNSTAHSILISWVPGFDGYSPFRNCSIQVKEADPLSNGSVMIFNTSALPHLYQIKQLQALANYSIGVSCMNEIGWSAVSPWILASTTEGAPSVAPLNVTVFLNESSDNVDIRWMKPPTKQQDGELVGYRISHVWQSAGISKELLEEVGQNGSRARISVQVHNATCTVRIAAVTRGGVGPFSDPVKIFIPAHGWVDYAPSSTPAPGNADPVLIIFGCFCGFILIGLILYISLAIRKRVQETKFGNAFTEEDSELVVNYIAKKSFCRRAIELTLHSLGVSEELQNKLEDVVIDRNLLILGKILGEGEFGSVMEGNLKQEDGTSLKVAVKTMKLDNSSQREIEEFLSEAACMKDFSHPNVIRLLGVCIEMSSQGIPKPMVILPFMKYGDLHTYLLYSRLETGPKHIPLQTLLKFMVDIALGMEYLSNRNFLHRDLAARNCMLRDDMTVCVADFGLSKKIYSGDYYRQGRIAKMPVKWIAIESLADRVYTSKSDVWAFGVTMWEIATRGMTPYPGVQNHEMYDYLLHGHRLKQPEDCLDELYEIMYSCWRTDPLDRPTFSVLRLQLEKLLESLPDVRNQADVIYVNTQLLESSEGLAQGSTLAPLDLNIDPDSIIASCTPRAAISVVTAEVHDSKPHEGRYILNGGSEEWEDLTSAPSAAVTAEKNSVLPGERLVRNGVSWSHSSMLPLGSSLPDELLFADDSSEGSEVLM

[12] = system: c-Abl (mouse); assay: as above
[13] = target: Hck (UniProt P08631); assay: as above
[14] = target: Jak2 (UniProt O60674); assay: as above
[15] = system: c-Src; assay: as above
[16] = target: FGFR1 (UniProt P11362); assay: as above
Sequence of FGFR1 (P11362 whole entry, looked up, the tested form may be a part): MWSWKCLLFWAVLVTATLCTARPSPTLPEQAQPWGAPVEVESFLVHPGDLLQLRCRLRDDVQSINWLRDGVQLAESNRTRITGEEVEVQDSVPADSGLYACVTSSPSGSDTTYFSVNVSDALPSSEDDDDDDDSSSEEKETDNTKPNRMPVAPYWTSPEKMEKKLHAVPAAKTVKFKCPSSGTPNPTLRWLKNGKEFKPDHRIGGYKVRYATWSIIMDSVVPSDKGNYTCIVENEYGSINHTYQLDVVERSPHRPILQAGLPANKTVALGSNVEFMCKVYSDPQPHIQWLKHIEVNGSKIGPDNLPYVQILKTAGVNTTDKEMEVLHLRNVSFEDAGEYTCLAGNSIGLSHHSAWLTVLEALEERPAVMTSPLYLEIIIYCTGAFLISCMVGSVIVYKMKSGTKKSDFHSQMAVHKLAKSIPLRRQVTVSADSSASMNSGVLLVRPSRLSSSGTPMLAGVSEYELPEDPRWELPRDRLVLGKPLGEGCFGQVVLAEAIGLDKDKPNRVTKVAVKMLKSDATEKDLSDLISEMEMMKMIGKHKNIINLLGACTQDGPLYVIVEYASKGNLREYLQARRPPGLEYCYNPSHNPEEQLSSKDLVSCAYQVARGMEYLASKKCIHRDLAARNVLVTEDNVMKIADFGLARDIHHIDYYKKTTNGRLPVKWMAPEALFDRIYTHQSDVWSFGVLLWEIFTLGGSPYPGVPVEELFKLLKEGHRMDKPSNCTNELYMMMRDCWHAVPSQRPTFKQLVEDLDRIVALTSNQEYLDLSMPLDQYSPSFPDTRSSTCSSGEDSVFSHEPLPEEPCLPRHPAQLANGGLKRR
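For SH2 binding enrichment of the phosphorylated peptide, bacterial display in this document: peptide library displayed on the E. coli surface as eCPX fusions, selected cells deep-sequenced, score is each peptide's frequency after selection divided by its frequency in the input.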
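For phosphorylation enrichment, bacterial display in this document: 11-residue human phosphosite peptides and single-mutation variants displayed on the E. coli surface, counted by deep sequencing, each peptide's frequency after selection divided by its frequency in the unselected input library; frequency after pTyr selection over input frequency; kinase dosed for 20-30% of maximal phosphorylation in three min.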

Sequence of Grb2 SH2 (P62993 whole entry, looked up): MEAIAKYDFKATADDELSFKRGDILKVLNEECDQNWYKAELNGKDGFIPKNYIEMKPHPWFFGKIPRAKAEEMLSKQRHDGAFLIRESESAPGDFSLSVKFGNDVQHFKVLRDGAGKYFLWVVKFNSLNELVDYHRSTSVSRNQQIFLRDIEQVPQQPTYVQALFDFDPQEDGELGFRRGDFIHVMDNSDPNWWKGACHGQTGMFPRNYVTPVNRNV

| Sequence | SH2 binding enrichment [1] | SH2 binding enrichment [2] | SH2 binding enrichment [3] | phosphorylation enrichment [4] | phosphorylation enrichment [5] | phosphorylation enrichment [6] | phosphorylation enrichment [7] | phosphorylation enrichment [8] | phosphorylation enrichment [9] | phosphorylation enrichment [10] | phosphorylation enrichment [11] | phosphorylation enrichment [12] | phosphorylation enrichment [13] | phosphorylation enrichment [14] | phosphorylation enrichment [15] | phosphorylation enrichment [16] |
| --- | --- | --- | --- | --- | --- | --- | --- | --- | --- | --- | --- | --- | --- | --- | --- | --- |
| MSPPGYKLVTG [GJA1_Y286] | 0.512 | 0.286 | 0.701 | 0.715 | 0.667 | 0.381 | 0.541 | 0.533 | 0.516 | 0.427 | 0.397 | 0.485 | 0.418 | 0.686 | 0.429 | 0.476 |
| GRQGIYTENER [GPR143_Y231] | 0.682 | 0.607 | 0.966 | 0.951 | 0.496 | 0.427 | 0.724 | 0.62 | 0.466 | 0.511 | 0.456 | 0.581 | 0.439 | 0.548 | 0.581 | 0.464 |
| MIRSAYALGGL [CPS1_Y590] | 0.689 | 0.46 | 0.715 | 0.534 | 0.358 | 0.435 | 0.54 | 0.473 | 0.32 | 0.41 | 0.449 | 0.417 | 0.386 | 0.597 | 0.384 | 0.392 |
| KLVDVYVNDAF [PGK1_Y161_G158V] | 0.832 | 0.764 | 1.44 | 0.81 | 0.575 | 0.5 | 0.895 | 0.626 | 0.496 | 0.574 | 0.425 | 0.387 | 0.554 | 0.661 | 0.435 | 0.635 |
| IWDLKYTIENP [SND1_Y178_R174W] | 0.755 | 0.467 | 1.06 | 1.16 | 0.593 | 0.498 | 1.01 | 0.82 | 0.496 | 0.353 | 0.426 | 1.07 | 0.433 | 1.02 | 0.688 | 0.497 |
| LKMLVYLDMSK [LRRC7_Y234] | 0.721 | 0.531 | 0.757 | 1.72 | 1.01 | 0.805 | 1.36 | 1.13 | 0.475 | 0.654 | 0.545 | 1.18 | 0.559 | 1.24 | 0.441 | 0.347 |
| CEAMEYPESKQ [BTK_Y511_L512P] | 0.728 | 0.66 | 0.976 | 1.42 | 0.676 | 0.735 | 1.28 | 0.736 | 0.705 | 0.543 | 0.46 | 0.952 | 0.572 | 1.3 | 0.548 | 0.571 |
| QSSALYEDHFL [ASS1_Y83_R86H_YF] | 1.13 | 0.48 | 0.809 | 1.47 | 5.92 | 4.17 | 1.07 | 0.46 | 17.9 | 1.36 | 2.51 | 1.04 | 1.57 | 0.898 | 2.12 | 0.654 |
| CNRADYSKLAS [GNE_Y22_P27S] | 0.625 | 0.938 | 0.874 | 0.95 | 0.393 | 0.572 | 1.04 | 0.47 | 0.398 | 0.377 | 0.441 | 0.453 | 0.376 | 0.621 | 0.369 | 0.367 |
| INQGPYENRSV [ATP6V1B1_Y462] | 0.643 | 0.532 | 1.2 | 0.622 | 0.381 | 0.568 | 0.558 | 0.441 | 0.4 | 0.38 | 0.38 | 0.475 | 0.423 | 0.47 | 0.435 | 0.421 |
| KPPPTYESEEE [BRD4_Y599] | 0.719 | 0.728 | 0.977 | 1.88 | 0.653 | 0.711 | 1.65 | 0.775 | 0.753 | 0.664 | 0.552 | 1.18 | 0.641 | 1.39 | 0.767 | 0.618 |
| RGVTRYIFNRE [HLA-DQB1_Y62_Y58G_YF] | 0.512 | 0.494 | 0.821 | 1.85 | 1 | 0.766 | 2.22 | 1.27 | 0.886 | 0.982 | 1.59 | 1.34 | 1.08 | 1.74 | 1.38 | 0.757 |
| IDPYTYTPFGS [CYP3A4_Y432_I431T] | 0.885 | 1.17 | 0.92 | 0.914 | 0.563 | 0.6 | 1.3 | 2.25 | 0.698 | 7.04 | 1.16 | 0.63 | 3.36 | 0.907 | 6.82 | 3.24 |
| DNPAKYFILEN [DPP10_Y512_S517N] | 0.636 | 0.828 | 0.659 | 1.2 | 0.59 | 0.456 | 1.03 | 0.617 | 0.531 | 0.459 | 0.509 | 0.935 | 0.392 | 1.41 | 0.495 | 0.557 |
| ATDLAYFLVRE [ASL_Y375_K380E_YF] | 1.67 | 1.26 | 0.827 | 1.51 | 1.02 | 0.953 | 1.54 | 3.95 | 0.797 | 0.809 | 0.694 | 0.939 | 0.782 | 2.29 | 0.783 | 4.9 |
| MTRDIYETDFF [INSR_Y1185_YF] | 0.565 | 0.997 | 0.855 | 1.39 | 0.936 | 0.788 | 1.13 | 0.821 | 1.15 | 1.93 | 1.22 | 0.909 | 1.4 | 1.23 | 2.06 | 0.56 |
| CNPLRYPVLMS [OR2T1_Y182] | 0.875 | 0.742 | 0.975 | 0.913 | 0.549 | 0.567 | 0.839 | 0.621 | 0.453 | 0.5 | 0.428 | 0.896 | 0.518 | 0.758 | 0.498 | 0.476 |

| Sequence | SH2 binding enrichment [1] | SH2 binding enrichment [2] | SH2 binding enrichment [3] | phosphorylation enrichment [4] | phosphorylation enrichment [5] | phosphorylation enrichment [6] | phosphorylation enrichment [7] | phosphorylation enrichment [8] | phosphorylation enrichment [9] | phosphorylation enrichment [10] | phosphorylation enrichment [11] | phosphorylation enrichment [12] | phosphorylation enrichment [13] | phosphorylation enrichment [14] | phosphorylation enrichment [15] | phosphorylation enrichment [16] |
| --- | --- | --- | --- | --- | --- | --- | --- | --- | --- | --- | --- | --- | --- | --- | --- | --- |
| SASRSYSRSRS [SRRM4_Y549] | 0.451 | 0.424 | 0.622 | 0.594 | 0.466 | 0.521 | 0.635 | 0.497 | 0.505 | 0.518 | 0.589 | 0.659 | 0.503 | 0.58 | 0.588 | 0.426 |
| EAGKVYLKAAM [CBFB_Y96_P100A] | 0.781 | 0.462 | 0.893 | 1.26 | 0.565 | 0.484 | 1.03 | 0.742 | 0.568 | 0.408 | 0.333 | 0.775 | 0.494 | 1.26 | 0.449 | 0.674 |
| NKVKFYIPDMN [NCR1_Y84] | 0.849 | 0.854 | 0.954 | 0.865 | 0.496 | 0.476 | 0.743 | 0.66 | 0.448 | 0.396 | 0.388 | 0.602 | 0.432 | 0.8 | 0.567 | 0.432 |
| DGQVNYEGFVQ [CALM1_Y139_E141G] | 0.467 | 0.586 | 0.659 | 1.07 | 1.31 | 1.01 | 0.996 | 0.724 | 0.793 | 0.512 | 0.453 | 1.19 | 0.553 | 1.04 | 0.603 | 0.496 |
| EALDFCGEVRT [PTEN_Y155_Y155C] | 0.645 | 0.534 | 1.07 | 1.48 | 0.882 | 0.691 | 1.31 | 1.09 | 0.674 | 0.583 | 0.482 | 0.984 | 0.642 | 1.41 | 0.545 | 0.803 |
| TQKLAYMELQQ [CENPF_Y700] | 1.17 | 0.931 | 0.934 | 0.907 | 0.482 | 0.454 | 0.776 | 0.629 | 0.513 | 0.455 | 0.527 | 0.94 | 0.52 | 0.794 | 0.509 | 0.596 |
| SHNKYYMLVAR [MFSD8_Y134] | 15.5 | 1.92 | 1.77 | 0.939 | 0.943 | 0.675 | 0.825 | 3.28 | 0.486 | 0.494 | 2.9 | 0.6 | 0.658 | 1.14 | 0.487 | 5.4 |
| KVPAIYGVGTR [CPS1_Y162_D165G] | 0.615 | 0.699 | 0.948 | 0.576 | 0.424 | 0.391 | 0.47 | 0.402 | 0.377 | 2.27 | 0.527 | 0.923 | 5.68 | 0.562 | 2.44 | 0.362 |
| RPIEVYLCPEE [E2F3_Y349_G344R] | 0.809 | 0.559 | 0.918 | 3.24 | 1.49 | 0.998 | 3.41 | 1.3 | 0.938 | 1.06 | 0.975 | 1.97 | 1.04 | 3.12 | 2.55 | 1.11 |
| QMIETYFDFRV [NSMF_Y506_L511V] | 0.607 | 0.581 | 0.642 | 1.39 | 2.29 | 1.46 | 1.77 | 4.49 | 0.679 | 3.37 | 1.09 | 0.887 | 2.77 | 2.78 | 4.53 | 5.84 |
| ARAHKYHGGGG [HBB_Y146_L142R] | 0.799 | 0.902 | 1.39 | 0.443 | 0.246 | 0.273 | 0.384 | 0.371 | 0.28 | 0.312 | 0.276 | 0.474 | 0.302 | 0.379 | 0.312 | 0.324 |
| MEIHAYHKLLE [LMNA_Y376_R377H] | 0.762 | 8.92 | 0.743 | 1.25 | 0.475 | 0.588 | 0.974 | 0.746 | 0.422 | 0.445 | 0.403 | 0.691 | 0.552 | 1.03 | 0.441 | 0.474 |
| CGADSYEMEED [EGFR_Y316] | 0.652 | 0.797 | 0.825 | 1.27 | 0.685 | 0.72 | 1.57 | 0.899 | 0.533 | 0.534 | 0.549 | 0.827 | 0.705 | 1.08 | 0.483 | 0.536 |
| AKKKMYSLKTK [AGXT_Y231_R233L] | 1.51 | 1.54 | 1.2 | 0.791 | 0.317 | 0.463 | 0.404 | 0.853 | 0.373 | 0.365 | 0.435 | 0.773 | 0.44 | 0.795 | 0.434 | 0.389 |
| QEIATYRRLLE [KRT14_Y415] | 0.58 | 0.413 | 0.862 | 0.936 | 0.418 | 0.53 | 0.689 | 0.68 | 0.411 | 0.562 | 0.464 | 0.563 | 0.453 | 0.693 | 0.503 | 0.509 |
| EDASEYFENFI [PARP4_Y214_F215Y_YF] | 0.544 | 0.436 | 0.812 | 1.47 | 0.798 | 0.806 | 2.37 | 1.58 | 0.598 | 0.613 | 0.58 | 1.07 | 0.624 | 1.39 | 0.618 | 1.48 |
